Test results as given in publication PMC6202324, “C1GALT1 predicts poor prognosis and is a potential therapeutic target in head and neck cancer” (Oncogene, 2018).

Key:
[1] = target: C1GALT1 (Core 1 β1,3-galactosyltransferase) (Homo sapiens, UniProt Q9NS00); assay: cellular thermal shift assay (CETSA, western blot) in SAS and OEC-M1 cells; destabilization, dose-dependent; format: cell-based
[2] = target: EGFR from C1GALT1 knockdown HNSCC cells (human (endogenous in SAS and OEC-M1)) (UniProt P00533); assay: ELISA; ligand-binding assay: 100 µg lysate of SAS cells (siCtr or siC1GALT1-2, 72 h) incubated 18 h on plates coated with anti-EGFR antibody; biotin-EGF at different concentrations, 37 °C, 3 h; streptavidin-HRP, O.D. 490 nm; Kd estimated from Scatchard plot
[3] = target: EGFR (endogenous, from control HNSCC cells) (human (endogenous in SAS and OEC-M1)) (UniProt P00533); assay: as above
[4] = target: EGFR from C1GALT1 knockdown HNSCC cells (human (endogenous in SAS and OEC-M1)) (UniProt P00533); assay: ELISA; ligand-binding assay: 100 µg lysate of OEC-M1 cells (siCtr or siC1GALT1-2, 72 h) incubated 18 h on plates coated with anti-EGFR antibody; biotin-EGF at different concentrations, 37 °C, 3 h; streptavidin-HRP, O.D. 490 nm; Kd estimated from Scatchard plot
[5] = target: EGFR (endogenous, from control HNSCC cells) (human (endogenous in SAS and OEC-M1)) (UniProt P00533); assay: as above

Sequence of C1GALT1 (Core 1 β1,3-galactosyltransferase) (Q9NS00 whole entry): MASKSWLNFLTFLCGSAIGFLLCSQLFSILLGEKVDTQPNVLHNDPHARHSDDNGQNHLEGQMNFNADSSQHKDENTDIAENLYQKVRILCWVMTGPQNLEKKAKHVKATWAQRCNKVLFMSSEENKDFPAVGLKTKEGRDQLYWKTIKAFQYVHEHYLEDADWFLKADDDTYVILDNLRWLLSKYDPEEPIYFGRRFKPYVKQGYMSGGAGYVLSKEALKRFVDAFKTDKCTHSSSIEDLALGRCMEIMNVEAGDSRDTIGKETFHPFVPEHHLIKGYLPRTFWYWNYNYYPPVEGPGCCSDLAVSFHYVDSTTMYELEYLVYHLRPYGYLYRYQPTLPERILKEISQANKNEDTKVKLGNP

Compound | cellular thermal shift assay (CETSA, western blot) in SAS and OEC-M1 cells; dest [1] | Kd [2] | Kd [3] | Kd [4] | Kd [5]
CCC(C)n1ncn(-c2ccc(N3CCN(c4ccc(OCC5COC(Cn6cncn6)(c6ccc(Cl)cc6Cl)O5)cc4)CC3)cc2)c1=O (centres unmarked) [ITZ, itraconazole] | melting temperature of C1GALT1 was decreased when SAS and OEC-M1 cells were treated with itraconazole | – | – | – | –
Biotin-EGF (ligand) | – | 42.3 nM | 32 nM | 58.8 nM | 26.1 nM
